Measured values reported in the supplement of paper PMC11865577.

Key:
Assay in all cases: pull-down binding Z-score (relative to library population); higher = stronger binding
[1] = tested on: G-clamp-N3 (biotin conjugate); conditions: RNA library: Library-1 (pre-miRNA loops + repeats)
Summary of the method: (§1)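 Biotin-conjugated small molecule (100 pmol) on streptavidin beads was incubated with 1 μg of heat-folded Cy5- or Cy3-end-labelled RNA library in phosphate/NaCl/KCl buffer at 25 °C for 60 min. Following three washes, RNA was eluted with hot SDS and hybridised at 55.5 °C for 20 h to a DNA barcode microarray. The binding value is a Z-score computed from the library mean and standard deviation, after subtraction of beads without compound and averaging of barcoded replicate probes with the highest and lowest excluded.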

[2] = tested on: TO-3-N3 (biotin conjugate); conditions: RNA library: Library-2
Summary of the method: as §1

[3] = tested on: TO-3-N3-2 (biotin conjugate); conditions: RNA library: Library-2
Summary of the method: as §1

[4] = tested on: TO-N3 (biotin conjugate); conditions: RNA library: Library-2
Summary of the method: as §1

[5] = tested on: TO-N3-2 (biotin conjugate); conditions: RNA library: Library-2
Summary of the method: as §1

Sequence	pull-down binding Z-score [1]	pull-down binding Z-score [2]	pull-down binding Z-score [3]	pull-down binding Z-score [4]	pull-down binding Z-score [5]
GAAGGAAGGCAAGGCUGUCUGUCCAUC [hsa-mir-4800]	-1.01	0.852	0.513	1.03	0.685
GAGGGAUGAGUGCACUUCACCUGC [hsa-mir-4435-1_4435-2]	0.0709	-0.191	0.0965	0.375	0.859
UAUAGGAAGGAAAUCUUAU [hsa-mir-6129]	-0.636	-0.671	-0.279	-0.641	-0.517
CUUCCUGAGCACGCUCAUGAUGAGCAAACUGAGCCUCUAAG [hsa-mir-3653]	-0.859	0.463	0.277	0.596	0.429
AACAACAGCAUCAGAAGCAACAUCAGCUUUAGUU [hsa-mir-569]	-1.03	0.728	0.364	0.9	1
UCCACACUGACAAGGGCCGUGGGG [hsa-mir-3191]	-0.843	1.19	0.217	1.19	0.967
AACACCCAUCCCAGGAUUGCUGAUGGGUGUU [hsa-mir-5705]	-0.7	-0.618	-0.428	-0.668	-0.282
CUGGUAGUAUAAAACCCAG [hsa-mir-934]	0.805	-0.0745	-0.114	-0.151	-0.468
GAACCCAAGAAAAGCUGACUUGGAGGUCCC [hsa-mir-4667]	-0.432	1.21	0.578	1.47	1.27
GCCGGAGCGGGC [hsa-mir-1181]	1.74	0.493	0.0808	0.703	0.58
UAUGACCAGGCCAUAGUAAACAUCAUA [hsa-mir-4744]	1.78	-0.475	0.312	-0.247	-0.124
UGUGCCCCGUACCGGACAGG [hsa-mir-7160]	-1.03	-0.0418	-0.0308	0.611	1.21
GUGAUUACAUUAAAACUUAAAAUUUCAC [hsa-mir-4719]	-1.01	-0.0289	-0.244	-0.105	-0.663
CAGCUGUUGUCUCCAGAGCAUUCCAGCUG [hsa-mir-191]	-0.433	0.371	-0.002	0.648	1.46
GUCUUGGGGUGGGGGAUCAAGAC [hsa-mir-642a]	0.431	2.99	2.9	2.61	1.89
GUUUGGGUGCGGUUGGGAGUCUCUAAU [hsa-mir-200c]	0.194	1.66	1.39	1.67	1.41
AAGUAGUUGGCGUCUUCAGAGACACUU [hsa-mir-643]	-0.0629	0.57	0.0519	0.531	0.0279
UCCUGAGACAGGA [hsa-mir-4261]	-0.47	-0.563	-0.5	-0.807	-1.02
GGAAGGGCGCCUGUGCUUCGUCC [hsa-mir-572]	0.21	0.31	-0.215	0.52	0.767

Sequence	pull-down binding Z-score [1]	pull-down binding Z-score [2]	pull-down binding Z-score [3]	pull-down binding Z-score [4]	pull-down binding Z-score [5]
CUCGGGUGGAUAAGUCUGAUCUGAG [hsa-mir-3663]	1.2	-0.724	-0.631	-0.554	0.26
GUGAGUUAGAAAAGCUCAAUUCAC [hsa-mir-4457]	-0.276	-0.654	-0.365	-0.662	-0.405
GGGCUCGUGAUGGCUGGUGGGCCC [hsa-mir-345]	3	-0.497	-0.191	-0.356	0.665
GAAAACUUUGGAGAAAAAUUUUC [hsa-mir-4659a]	-0.714	-0.765	-0.258	-1.04	-0.857
GGCAUCAGAGGACAGCCGCCUGGUGCC [hsa-mir-4641]	0.915	0.287	-0.0706	0.327	0.46
CUGGGAGGUGUGAUAUCGUGGUUCCUGG [hsa-mir-3689c]	0.718	1.02	0.136	1.13	0.744
AAGACACUAUCUUACAACAACAGGGCUCUU [hsa-mir-550b-1]	0.13	1.17	0.281	1.01	0.298
AGUUUGUGAUAAUGUUUGUCUAUAUAGUUAUGAAUG [hsa-mir-4307]	0.397	-0.811	-0.174	-0.633	-0.531
CCUCUGUCCUCUGUCCUCUACCUAUAGAGG [hsa-mir-641]	0.349	0.224	-0.229	0.118	0.141
AUCAUGUAUAAUUAAAAAUGAU [hsa-mir-509-2_509-3_509-1]	-0.568	-0.267	-0.0578	-0.599	-1
UCACUGCUGCUGGCGCCCUGA [hsa-mir-943]	-0.764	0.0735	0.0365	0.432	0.911
UUUUGCAAUUUUUUAAUGACAAAA [hsa-mir-548t]	-0.195	-0.494	-0.334	-0.585	-0.704
GUUUACGUGAUUCCUGGUUAAUC [hsa-mir-376b]	0.375	-0.121	-0.0636	-0.0962	-0.0759
UCAUUUAUGUGAACUAAAAUAUAAAUUU [hsa-mir-513a-2_513a-1]	-1.8	-1.03	-0.361	-1.25	-1.11
CAUGUGCUGAGUUCGUGCCAUAUG [hsa-mir-654]	0.492	-0.615	-0.228	-0.299	0.41
GAAACAUCUUUUAC [hsa-mir-4514]	-0.862	-0.428	-0.191	-0.551	-0.469
UUAUUCAGAGAGGCUAGAUCCUCUGUGUUGAGAAGGAUCA [hsa-mir-433]	0.503	-0.385	0.23	-0.151	-0.0231
GCUAACUGUGACCUUAGC [hsa-mir-4729]	-0.373	0.00513	-0.181	-0.187	-0.478
